# Values quoted from earlier work as cited in patent publication US5093322A, “Tick-derived amblyommin and method of antithrombin therapy” (Hoechst Aktiengesellschaft, priority 1988, dated 1992).
# How the values were obtained:
# [1] = in vivo
substance,measurement,setting,value
hirudin,half-life,[1],relatively short half-life
same,"thrombin inhibition, specificity",thrombin,highly specific thrombin inhibitor
